According to patent US20220332804A1 (CSL INNOVATION, published 2022):
Positions count from the first letter of the chain named.

What was measured:
Assay in all cases: SPR, antibody captured, C2 as analyte;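 further: biacore SPR at 37 °C, anti-C2 mAbs captured via goat anti-human IgG on CM5 chips, double-referenced sensorgrams fit to a 1:1 kinetic or steady-state model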
human C2 L279A = molecular target: T1, human C2 L279A (human, UniProt P06681 21-752)
T1 sequence: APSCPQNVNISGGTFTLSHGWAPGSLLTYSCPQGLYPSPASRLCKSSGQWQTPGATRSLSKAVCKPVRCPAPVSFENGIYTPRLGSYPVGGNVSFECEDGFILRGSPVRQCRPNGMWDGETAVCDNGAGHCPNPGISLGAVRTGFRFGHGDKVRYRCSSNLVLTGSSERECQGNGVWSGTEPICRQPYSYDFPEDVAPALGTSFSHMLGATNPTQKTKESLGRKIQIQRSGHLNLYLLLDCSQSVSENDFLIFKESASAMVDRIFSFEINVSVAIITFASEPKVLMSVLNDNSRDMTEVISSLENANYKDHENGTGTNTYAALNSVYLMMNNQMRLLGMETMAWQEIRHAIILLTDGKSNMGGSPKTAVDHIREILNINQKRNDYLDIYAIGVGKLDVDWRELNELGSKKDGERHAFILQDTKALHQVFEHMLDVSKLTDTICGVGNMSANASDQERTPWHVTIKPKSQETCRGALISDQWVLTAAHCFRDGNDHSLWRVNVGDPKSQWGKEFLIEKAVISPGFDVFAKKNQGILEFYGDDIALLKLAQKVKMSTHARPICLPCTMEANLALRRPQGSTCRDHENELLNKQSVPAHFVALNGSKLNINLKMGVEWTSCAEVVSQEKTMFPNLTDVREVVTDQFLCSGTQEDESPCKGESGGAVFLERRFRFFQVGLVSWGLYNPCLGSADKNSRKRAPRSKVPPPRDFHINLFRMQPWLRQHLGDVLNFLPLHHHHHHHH
Experimental: (§1) Surface plasmon resonance (SPR, Biacore) was used for all binding affinity analyses. In brief, goat anti-human IgG was directly immobilised onto the carboxymethyl dextran surface of CM5 sensorchips to approximately 12,000 RU using standard NHS/EDC chemistry at pH 5. The immobilised antibody surface was pre-conditioned with ten injections of polyclonal human IgG (Privigen 60 s) prepared at 1 μg/mL. Ligands (anti-C2 mAbs) were captured at the beginning of each cycle as described below. An adjacent spot or flow cell in which only Polyclonal IgG was capture was used as a reference surface. The goat anti-human IgG Fc antibody surface was regenerate in 100 mM H3PO4, injected for 45 seconds at the end of each cycle. Experiments were performed at 37° C. and the flow rate of each experiment was kept constant at 30 μL/min.
(§2) Sensogram data was double-referenced against a reference anti-IgG surface (i.e. minus anti-C2 mAb) and blank buffer injections obtained within each experiment. The binding data was fit to 1:1 (kinetic or steady-state) model using local Rmax and null refraction index (RI=0) when appropriate. Buffers and solutions were filtered (0.22 μm) prior to use.

human C2 M316A = molecular target: T2, human C2 M316A (human, UniProt P06681 21-752)
T2 sequence: T1 sequence with A259L, M296A
Experimental: as §1, §2

human C2 G414A = molecular target: T3, human C2 G414A (human, UniProt P06681 21-752)
T3 sequence: T1 sequence with A259L, G394A
Experimental: as §1, §2

human C2 Q447A = molecular target: T4, human C2 Q447A (human, UniProt P06681 21-752)
T4 sequence: T1 sequence with A259L, Q427A
Experimental: as §1, §2

B1: RF16-226 (antibody, human IgG4 S228P, lambda)
heavy: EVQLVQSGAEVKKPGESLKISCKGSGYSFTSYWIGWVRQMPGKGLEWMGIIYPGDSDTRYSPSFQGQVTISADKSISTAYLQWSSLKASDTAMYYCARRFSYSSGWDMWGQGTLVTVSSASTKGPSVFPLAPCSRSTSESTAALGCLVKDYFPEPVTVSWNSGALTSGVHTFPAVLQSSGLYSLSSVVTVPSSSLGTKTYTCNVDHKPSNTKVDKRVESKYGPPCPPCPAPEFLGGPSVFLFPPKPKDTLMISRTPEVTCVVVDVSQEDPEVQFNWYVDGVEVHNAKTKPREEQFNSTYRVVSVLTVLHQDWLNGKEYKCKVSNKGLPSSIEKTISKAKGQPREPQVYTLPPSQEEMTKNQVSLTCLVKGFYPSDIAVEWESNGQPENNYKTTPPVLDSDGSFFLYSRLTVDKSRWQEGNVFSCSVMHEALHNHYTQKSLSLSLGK
light: SYELTQPPSVSVSPGQTARITCSGDALTSKYVAWYQQKSGLAPLLVIYEDTRRPSGIPAKFSGSSSGSVATLTISGAHGDDEADYYCYSTDASGHQRVFGGGTKLTVLSQPKAAPSVTLFPPSSEELQANKATLVCLISDFYPGAVTVAWKADGSPVKAGVETTKPSKQSNNKYAASSYLSLTPEQWKSHRSYSCQVTHEGSTVEKTVAPTECS
notes: pH-dependent anti-C2 antibody from a phage display library; also called WT
Kd (human C2 L279A): 54.4 nM
Kd (human C2 M316A): 12.3 nM
Kd (human C2 G414A): 11.2 nM
Kd (human C2 Q447A): 5.4 nM
